# From patent publication US20150218285A1 (TORAY INDUSTRIES, published 2015)
# Positions count from the first letter of the chain named.
# T1: human CAPRIN-1 recombinant protein (human, UniProt Q14444 1-709)
# T1 construct: also called CAPRIN-1 protein; human CAPRIN-1 protein
# T1 sequence: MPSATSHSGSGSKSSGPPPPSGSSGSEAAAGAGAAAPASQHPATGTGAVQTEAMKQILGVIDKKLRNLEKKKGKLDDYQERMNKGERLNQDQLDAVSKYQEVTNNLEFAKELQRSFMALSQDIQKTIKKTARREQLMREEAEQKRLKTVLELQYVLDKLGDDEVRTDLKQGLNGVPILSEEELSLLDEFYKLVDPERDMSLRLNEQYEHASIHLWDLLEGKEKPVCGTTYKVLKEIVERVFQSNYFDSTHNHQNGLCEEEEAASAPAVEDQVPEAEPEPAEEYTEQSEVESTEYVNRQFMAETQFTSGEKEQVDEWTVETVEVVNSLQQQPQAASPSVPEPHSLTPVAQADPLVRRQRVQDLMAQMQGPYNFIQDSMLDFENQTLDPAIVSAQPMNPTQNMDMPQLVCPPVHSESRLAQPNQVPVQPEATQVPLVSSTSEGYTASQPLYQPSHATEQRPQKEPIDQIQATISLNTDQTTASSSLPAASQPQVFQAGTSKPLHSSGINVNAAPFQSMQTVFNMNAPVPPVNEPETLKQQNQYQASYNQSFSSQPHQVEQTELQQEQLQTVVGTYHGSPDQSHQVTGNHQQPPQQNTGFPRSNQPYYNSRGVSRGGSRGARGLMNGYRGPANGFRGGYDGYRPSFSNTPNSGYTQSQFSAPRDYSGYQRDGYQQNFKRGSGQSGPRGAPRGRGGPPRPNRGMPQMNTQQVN
# T2: CAPRIN-1 protein on the cell surface of human cancer cells (human, UniProt Q14444 2-709)
# T2 sequence (looked up): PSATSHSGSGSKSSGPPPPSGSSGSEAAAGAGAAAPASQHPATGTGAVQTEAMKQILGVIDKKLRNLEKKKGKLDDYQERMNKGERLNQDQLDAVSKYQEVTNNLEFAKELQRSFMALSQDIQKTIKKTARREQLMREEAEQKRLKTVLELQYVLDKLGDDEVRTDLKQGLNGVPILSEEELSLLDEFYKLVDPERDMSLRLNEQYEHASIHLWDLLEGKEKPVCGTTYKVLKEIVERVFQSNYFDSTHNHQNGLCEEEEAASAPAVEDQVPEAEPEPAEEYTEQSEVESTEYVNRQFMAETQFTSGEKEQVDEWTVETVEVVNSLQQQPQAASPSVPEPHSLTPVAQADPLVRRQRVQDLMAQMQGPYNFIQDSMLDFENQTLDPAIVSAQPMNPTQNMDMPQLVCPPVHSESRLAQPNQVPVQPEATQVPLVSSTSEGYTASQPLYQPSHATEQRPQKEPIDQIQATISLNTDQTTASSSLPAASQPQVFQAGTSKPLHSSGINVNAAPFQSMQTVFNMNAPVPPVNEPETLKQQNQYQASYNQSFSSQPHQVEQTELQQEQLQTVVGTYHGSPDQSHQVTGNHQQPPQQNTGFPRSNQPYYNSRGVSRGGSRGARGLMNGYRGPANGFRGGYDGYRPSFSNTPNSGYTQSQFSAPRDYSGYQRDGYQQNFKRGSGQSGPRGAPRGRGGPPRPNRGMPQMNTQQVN
# T3: peptide set forth in SEQ ID NO: 267 (human)
# T3 peptide: QQPQAASPSVPE
# T4: polypeptide set forth in SEQ ID NO: 266 (human)
# T4 construct: identified by ELISA on synthetic 12-16 aa peptides of human CAPRIN-1
# T4 peptide: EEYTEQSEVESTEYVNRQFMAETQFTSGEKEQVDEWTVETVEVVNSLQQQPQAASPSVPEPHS
# T5: polypeptide set forth in SEQ ID NO: 430 (human)
# T5 peptide: ATQVPLVSSTSEGYTA
# B1: humanized anti-CAPRIN-1 antibody #2 (antibody, human IgG1, V domains shown)
# VH: EVQLVESGGGLVQPGGSLRLSCAASGFSFSGSYYMSWVRQAPGKGLEWIAYIYIGDGVTAYANWAKGRFTISKDNSKNTLYLQMNSLRAEDTAVYFCARGNKLWGPGTLVTVSS
# VL: DIQMTQSPSSLSASVGDRVTIKCQASQSISSYLAWYQQKPGKAPKRLIYDASNLDSGVPSRFSGSGSGTDFTFTISSLQPEDIATYYCQCTAVSSATIYGNAFGGGTKVEIK
# B2: humanized anti-CAPRIN-1 antibody #3 (antibody, human IgG1, V domains shown)
# VH: B1 VH with K73R, F96Y
# VL: B1 VL
# B3: humanized anti-CAPRIN-1 antibody #1 (antibody, human IgG1, V domains shown)
# VH: B1 VH with E1Q, Q13K, K73R, S76A, T79S, K102R, P106Q
# VL: B1 VL with S14A, A43P
# B4: mouse monoclonal antibody #12 (antibody, V domains shown)
# VH: EVQLHQFGAELVKPGASVKISCKASGYTFTDYNMDWVKQSHGKSLEWIGDINPNYDSTSYNQKFKGKATLTVDKSSSTAYMELRSLTSEDTAVYYCARSRSYDYEGFAYWGQGTLVTVSA
# VL: DIQMTQSPASLSASVGETVTITCRASGNIHNYLAWYQQKQGKSPQLLVYNAKTLADGVPSRFSGSGSGTQYSLKINSLQPEDFGSYYCQHFWSTLTFGAGTKLELKR
# notes: mouse hybridoma antibody
# B5: mouse monoclonal antibody #14 (antibody, V domains shown)
# VH: B4 VH
# VL: DIQLTQSPASLSASVGETVTITCRASGNIHNYLAWYQQKQGKSPQLLVYNAKTLADGVPSRFSGSGSGTQYSLKINSLQPEDFGSYYCQHFWSTLTFGGGTKLEIK
# notes: mouse hybridoma antibody
# B6: mouse monoclonal antibody #15 (antibody, V domains shown)
# VH: B4 VH
# VL: SGDRVSLSCRASQSISNYLHWYQQKSHESPRLLIKYASQSISGIPSRFSGSGSGTDFTLSINSVETEDFGMYFCQQSNSWPYTFGAGTKLEIKQ
# notes: mouse hybridoma antibody
# B7: mouse monoclonal antibody #18 (antibody, V domains shown)
# VH: LQESGAELARPGASVKLSCKASGYTFTSYWMQWVKQRPGQGLEWIGAIYPGDGDTRYTQKFKGKATLTADKSSSTAYMQLSSLASEDSAVYYCARGEYGNYFAYWGQGTTVTVSS
# VL: TSDASLGERVTITCKASQDINSYLSWFQQKPGKSPKTLIYRANRLVDGVPSRFSGSGSGQDYSLTISSLEYEDMGIYYCLQYDEFPLTFGGGTKLEIKQ
# notes: mouse hybridoma antibody
# B8: mouse monoclonal antibody #4 (antibody, V domains shown)
# VH: GAELVRSGASVKMSCKASGYSFTDYNMYWVKQTPGQGLEWIGYIYPGNGGTNYNQKFKGKATLTADTSSSTAYMQISSLTSEDSAVYFCARDYDDGGYAMDYWGQGTTVTVSS
# VL: DIQMTQSPASLSASVGETVTITCRASGNIHNYLTWYQQKQGKSPQLLVYNAKTLADGVPSRFSGSGSGTQYSLKINRLQPEDFGSYYCQHFWNIPWTFGGGTKLNSR
# notes: mouse hybridoma antibody
# B9: mouse monoclonal antibody #8 (antibody, V domains shown)
# VH: GGGLVKPGGSLKLSCAASGFAFSSYDMSWIRQTPEKRLEWVAYISSGAGSTYYPDTVKGRFTVSRDNAKNTLYLQMSSLKSEDTAMYYCARHFYRFDYWGQGTTVTVSS
# VL: SIVMTQTPKFLLVSAGDRITITCKASQSVSNDVAWYQQKPGQSPKLLIYYASNRYTGVPDRFTGSGYGTDFTFTISTVQAEDLAVYFCQQDDRFPLTFGAGPS
# notes: mouse hybridoma antibody; also called anti-CAPRIN-1 monoclonal antibody #8
# B10: mouse monoclonal antibody #3 (antibody, V domains shown)
# VH: GGGLVKPGGSLKLSCAASGFTFSSYGMSWVRQTPEKRLEWVATISSGGSYTYYPDSVKGRFTISRDNAKNTLYLQMSSLRSEDTAMYYCASLASYYFDYWGQGTTLTVSS
# VL: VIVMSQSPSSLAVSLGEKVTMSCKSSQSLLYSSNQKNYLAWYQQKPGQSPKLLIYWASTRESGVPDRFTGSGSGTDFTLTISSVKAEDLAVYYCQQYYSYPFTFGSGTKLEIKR
# B11: human-chicken chimeric antibody #1 (antibody, human IgG1, kappa, V domains shown)
# VH: AVTLDESGGGLQMSRGGLSLVCKASGFDFSSYQMNWIRQAPGKGLEFVAAINKFGNSTGHGAAVKGRVTISRDNGQSTVRLQLNNLRAEDTAIYFCTKHAYGYCGSGTWCAAGEIDAWGHGTEVIVSS
# VL: QAASTQPSSVSANPGETVEITCSGGGSYSYGWFQQKSPGSAPVTVIYYNNKRPSDIPSRFSGSKSGSTGTLTITGVQADDEAVYYCGSGDSTDTAVFGAGTTLTVLG
# notes: chicken variable domains with human IgG1 H-chain and L-chain constant domains; also called human-chicken chimeric monoclonal antibody #1
# Target: T1, human CAPRIN-1 recombinant protein
# Experiment: reactivity with CAPRIN-1 protein, method not detailed
row,binding result,Binder
1,binds,B1
2,binds,B2
3,binds,B3

# Target: T2, CAPRIN-1 protein on the cell surface of …
# Experiment: cell-based or functional assay
row,Binder,"cytotoxicity (ADCC, 51Cr release) on SK-Hep-1"
1,B4,≥ 12%
2,B5,≥ 12%
3,B6,≥ 12%
4,B7,≥ 12%
5,B8,≥ 12%
6,B9,≥ 12%
7,B10,≥ 12%

# Target: T3, peptide set forth in SEQ ID NO: 267
# Experiment: ELISA on immobilised synthetic CAPRIN-1 peptides, culture supernatant
row,binding result,Binder
1,binds,B11
2,binds,B8

# Target: T4, polypeptide set forth in SEQ ID NO: 266
# Experiment: as above
row,binding result,Binder
1,binds,B11
2,binds,B8

# Target: T5, polypeptide set forth in SEQ ID NO: 430
# Experiment: reactivity with the epitope peptide, method not detailed
row,binding result,Binder
1,binds,B1
2,binds,B2
3,binds,B3

# Target: T2, CAPRIN-1 protein on the cell surface of …
# Experiment: reactivity with liver cancer cell lines, method not detailed
row,binding result,Binder
1,binds,B1
2,binds,B2
3,binds,B3

# Target: T2, CAPRIN-1 protein on the cell surface of …
# Experiment: flow cytometry on Hep3B, HepG2, SK-Hep-1, SW480; culture supernatant; vs isotype control
# Procedure: Subsequently, four liver cancer cell lines (Hep3 GB, HepG2, SK-Hep-1, and SW480), which were confirmed to express a CAPRIN-1 gene, were investigated for whether or not a CAPRIN-1 protein is expressed on the surfaces of these cells. 1×10⁶ cells of each cell line were centrifuged with a 1.5-mL micro centrifugation tube. To the cells was added the culture supernatant (100 μL) containing any of mouse monoclonal antibodies #1 to #22 against a CAPRIN-1 protein reacting to cancer cell surface produced in Example 4 and mouse-chicken chimeric antibodies #1 to #3 against a CAPRIN-1 protein produced in the above (2), followed by being left to stand on ice for 1 hour. After washing with PBS, the cells were suspended in a FITC-labeled goat anti-mouse IgG antibody (manufactured by Invitrogen Corporation) diluted by 500-fold with PBS containing 0.1% FBS, followed by being left to stand on ice for 1 hour. After washing with PBS, the fluorescence intensity was measured with FACS Calibur available from Becton, Dickinson and Company. Separately, as a control, the same procedure as in above was performed using an iso-type control antibody, instead of the culture supernatants containing the mouse monoclonal antibodies #1 to #22 against a CAPRIN-1 protein and the mouse-chicken chimeric antibodies #1 to #3. As a result, the fluorescence intensity in the cells to which any of the monoclonal antibodies #1 to #22 and the mouse-chicken chimeric antibodies #1 to #3 was added was 20% or more higher than that in the control in every case. Specifically, in the case of using mouse-chicken chimeric antibody #1, the fluorescence intensity was enhanced by 200% or more in both SK-Hep-1 and Hep3B. […] The rate of increase in the fluorescence intensity is represented by the rate of increase in the mean fluorescence intensity (MFI value) in each cell and is calculated by the following calculation formula: […]
row,rate of increase in mean fluorescence intensity,Binder
1,≥ 20%,B4
2,≥ 20%,B5
3,≥ 20%,B6
4,≥ 20%,B7
5,≥ 20%,B8
6,≥ 20%,B9
7,≥ 20%,B10
